# Values quoted from earlier work in PMC8801382.
# Tests used:
# [1] = target: alpha-globin (Homo sapiens) (UniProt P69905)
# [2] = target: beta-globin (Homo sapiens) (UniProt P68871)
# Chain of UniProt P68871 (P68871 2-147): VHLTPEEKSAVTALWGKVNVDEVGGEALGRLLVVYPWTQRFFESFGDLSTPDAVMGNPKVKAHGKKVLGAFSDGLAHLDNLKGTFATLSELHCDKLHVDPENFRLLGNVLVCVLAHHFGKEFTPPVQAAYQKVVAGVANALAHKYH
substance,measurement,setting,value
AHSP (from UniProt Q9NZD4),Kd,[1],17 nM
alpha-globin (from UniProt P69905),Kd,[2],0.001 nM
